# Where two headings read alike, the source gives them in different places.
# B1: PlySs2: bacteriophage lysin derived from Streptococcus suis, amino acid sequence of FIG. 29 (SEQ ID NO: 1) (protein, listed as Streptococcus suis)
# chain: MTTVNEALNNVRAQVGSGVSVGNGECYALASWYERMISPDATVGLGAGVGWVSGAIGDTISAKNIGSSYNWQANGWTVSTSGPFKAGQIVTLGATPGNPYGHVVIVEAVDGDRLTILEQNYGGKRYPVRNYYSAASYRQQVVHYITPPGTVAQSAPNLAGSRSYRETGTMTVTVDALNVRRAPNTSGEIVAVYKRGESFDYDTVIIDVNGYVWVSYIGGSGKRNYVATGATKDGKRFGNAWGTFK
# Tests used:
# Enterococcus faecalis = assay: MIC, broth microdilution (CLSI M07-A9); conditions: Enterococcus faecalis (17)
# Lactococcus spp. = assay: MIC, human gut bacteria; format: cell-based; conditions: N 3
# Proteus mirabilis = assay: MIC, human gut bacteria; format: cell-based; conditions: N 2
# VISA = assay: MIC, broth microdilution (CLSI M07-A9); set-up: MIC 50% / MIC 90% / MIC Range: unit not given beside the values
# Acinetobacter baumannii = assay: MIC, broth microdilution (CLSI M07-A9); conditions: Acinetobacter baumannii (8)
# [1] = tested on: 20 different MSSA and 42 MRSA strains; assay: Time-kill assay, single agents at 1×MIC; format: cell-based, Staphylococcus aureus
# Description: In order to more fully evaluate PlySs2's applicability to clinical Staphylococcal infections, time kill studies were undertaken against numerous Staphylococcus aureus strains, including methicillin resistant and methicillin sensitive strains. Time kill assays were performed according to CLSI methodology (CLSI document M07-A9 column 32 No. 2) on 42 methicillin resistant S. aureus (MRSA) strains and 20 methicillin sensitive S. aureus (MSSA) strains. Cultures of each strain (5.5×10^5-1×10^6 starting inoculum) were treated with PlySs2 lysin and with antibiotics daptomycin, oxacillin or vancomycin for comparison for 6 hours with aeration. MRSA and MSSA strains were treated with PlySs2, daptomycin and vancomycin. MSSA strains were also treated with oxacillin. 1×MIC concentrations of the different antibiotics were utilized, based on published and established antibiotic MIC values. PlySs2 lysin treatment was at approximately 1×MIC as previously determined (see TABLE 2 above). Culture aliquots were removed hourly up to 6 hours (time points taken at 15 and 30 min, 1 hr, 2 hr, 3 hr, 4 hr, 5 hr, and 6 hr) and added to a PBS/charcoal solution (to inactivate each drug), which was then serially diluted and plated for bacterial viability. The resulting log CFU/mL was plotted for each culture. Growth controls were included for each strain and represent bacterial growth in the absence of any antibacterial agent. Exemplary log kill curves for selected MRSA strains are depicted in FIG. 1. Exemplary log kill curves for selected MSSA strains are depicted in FIG. 2.
# (§1) Rapid-kill kinetics are desirable in the clinical setting to treat patients with fulminant bacterial infections.
# [2] = tested on: S. aureus cells (strain MW2); assay: Electron microscopy of bacteriolysis; format: cell-based, Staphylococcus aureus
# From the text: FIG. 4A-4F provides composite time kill curves of PlySS2 and antibiotics on S. aureus cells in vitro. (A, B) Composite time-kill curves of PlySS2 compared to oxacillin (OXA), vancomycin (VAN), and daptomycin (DAP) against sets of 20 MSSA and 42 MRSA strains, respectively. In each individual analysis, drug concentrations correspond to strain-specific 1×MIC values. Mean values (±standard error of the mean) are shown for each time-point. (C, D) Titration analysis of PlySS2 against sets of 15 contemporary clinical MSSA and MRSA isolates, respectively. In each individual analysis, PlySS2 concentrations correspond to strain-specific MIC values. […] (E,F) Transmission electron micrographs (3300× magnification) of S. aureus cells (strain MW2) before and after 3 second treatment with 8 µg/mL PlySS2. Scale bars correspond to […]. Lysis results in the loss of darkly stained cytoplasmic components.
# as §1
# MRSA strains = assay: Time kill assay, PlySs2 and antibiotic alone or in combination; format: cell-based, Staphylococcus aureus; conditions: ½ MIC of PlySs2 or ¼ MIC of vancomycin alone
# [3] = tested on: MRSA strain MW2 (also strains 738, 832); format: in vivo, BALB/c mice; conditions: 10^9 CFU, dosing at 2 hours, PlySs2 5.25 mg/kg
# [4] = tested on: MRSA strain MW2 and MSSA strain ATCC 29213; format: cell-based, Staphylococcus aureus; conditions: consistently across 1.25 to 15% surfactant
# MSSA = assay: MIC, broth microdilution (CLSI M07-A9)
# Streptococcus mutans = assay: MIC, broth microdilution (CLSI M07-A9); conditions: Streptococcus mutans (12)
# Enterococcus faecium = assay: MIC, broth microdilution (CLSI M07-A9); conditions: Enterococcus faecium (5)
# Lactobacillus spp. = assay: MIC, human gut bacteria; format: cell-based; conditions: N 6
# Pseudomonas aeruginosa = assay: MIC, broth microdilution (CLSI M07-A9)
# [5] = tested on: Staphylococcus epidermidis; assay: MIC, broth microdilution (CLSI M07-A9); conditions: Staphylococcus epidermidis (11)
# MRSA S. aureus strains = assay: Dual agent MIC assay (PlySs2 and daptomycin); format: cell-based, Staphylococcus aureus
# VRSA = assay: MIC, broth microdilution (CLSI M07-A9)
# [6] = Vancomycin-intermediate (31) Staphylococcus aureus
# [7] = FIG. 27B, daptomycin 50 mg/kg once daily
# [8] = FIG. 27E, vancomycin 110 mg/kg twice daily
# [9] = Staphylcoccus aureus Methicillin susceptible (103)
molecule,measurement,setting,value
B1,MIC 50%,Enterococcus faecalis,>512 µg/mL
same,MIC 90%,Enterococcus faecalis,>512 µg/mL
same,CF-301 MIC,Lactococcus spp.,>512 µg/mL
same,CF-301 MIC,Proteus mirabilis,>512 µg/mL
same,MIC90,VISA; VISA (n = 10),1.2 µM
same,MIC 50%,VISA; [6],8
same,MIC 90%,VISA; [6],32
same,MIC Range,VISA; [6],1-64
same,MIC 50%,Acinetobacter baumannii,>512 µg/mL
same,MIC 90%,Acinetobacter baumannii,>512 µg/mL
same,MIC Range,Acinetobacter baumannii,>512 µg/mL
same,time to reach bactericidal levels (≧3-log10 reduction in CFUs),[1]; 1×MIC,≤ 30 minutes
same,comparative kill,"[1]; 1×MIC, up to 6 hours",greater and faster than any antibiotic
same,maximal kill (log reduction),"[1]; all MRSA and MSSA strains tested, generally within the first hour of incubation",≥ 3 log
same,treatment time giving extensive bacteriolysis of S. aureus cocci,[2],15 s
same,effect alone at sub-MIC doses up to 6 hours,MRSA strains,ineffective or poorly effective
same,24 hour survival rate,[3]; [7],56%
same,72 hour survival rate,[3]; [7],18%
same,24 hour survival rate,[3]; [8],60%
same,72 hour survival rate,[3]; [8],3%
same,fold inhibition of MIC in the presence of Survanta,[4],8 fold
same,MIC90,MSSA; MSSA (n-28),0.15 µM
same,MIC 50%,MSSA; [9],4 µg/mL
same,MIC 90%,MSSA; [9],8 µg/mL
same,MIC Range,MSSA; [9],1 to 16 µg/mL
same,MIC 50%,Streptococcus mutans,64 µg/mL
same,MIC 90%,Streptococcus mutans,256 µg/mL
same,MIC Range,Streptococcus mutans,2 to 256 µg/mL
same,MIC 50%,Enterococcus faecium,>512 µg/mL
same,MIC 90%,Enterococcus faecium,>512 µg/mL
same,CF-301 MIC,Lactobacillus spp.,>512 µg/mL
same,MIC 50%,Pseudomonas aeruginosa; Pseudomonas aeruginosa (5),>512 µg/mL
same,MIC 90%,Pseudomonas aeruginosa; Pseudomonas aeruginosa (5),>512 µg/mL
same,MIC Range,Pseudomonas aeruginosa; Pseudomonas aeruginosa (5),>512 µg/mL
same,CF-301 MIC,"Pseudomonas aeruginosa; Pseudomonas aeruginosa, N 11, human gut bacteria",>512 µg/mL
same,MIC 50%,[5],128 µg/mL
same,MIC 90%,[5],512 µg/mL
same,MIC Range,[5],4 to 512 µg/mL
same,Fold reduction,MRSA S. aureus strains; MRSA strain 223,4 fold
same,Fold reduction,MRSA S. aureus strains; MRSA strain 241,2 fold
same,Fold reduction,MRSA S. aureus strains; MRSA strain 263,4 fold
same,Fold reduction,MRSA S. aureus strains; MRSA strain 269 (MW2),4 fold
same,Fold reduction,MRSA S. aureus strains; MRSA strain 270,4 fold
same,Fold reduction,MRSA S. aureus strains; MRSA strain 553,2 fold
same,Fold reduction,MRSA S. aureus strains; MRSA strain 650,2 fold
same,Fold reduction,MRSA S. aureus strains; MRSA strain 827,2 fold
same,Fold reduction,MRSA S. aureus strains; MRSA strain 828,4 fold
same,Fold reduction,MRSA S. aureus strains; MRSA strain 829,2 fold
same,Fold reduction,MRSA S. aureus strains; MRSA strain 830,2 fold
same,Fold reduction,MRSA S. aureus strains; MRSA strain 833,4 fold
same,fold reduction in the effective MIC in PlySs2/daptomycin combination,MRSA S. aureus strains; across 12 MRSA strains,2-4 fold
same,MIC90,VRSA; VRSA (n = 14),0.08 µM
same,MIC Range,VRSA; Vancomycin-resistant (14) Staphylococcus aureus,1000 to 4000 µg/mL

# From patent US9889181B2, “Bacteriophage lysin and antibiotic combinations against gram positive bacteria” (priority 2012, dated 2018)
